Measured values taken from US12404345B2, “Humanized antibodies against iRHOM2” (SCIRHOM GMBH, priority 2021, dated 2025).
Residue numbers refer to the chain shown, from its start.

B1: 23-B-04: humanized antibody binding human iRhom2; HCVD SEQ ID NO 25, LCVD SEQ ID NO 29 (antibody, V domains shown)
VH: QVTLRESGPALVKPTQTLTLTCTFSGFSLSTFGMGVGWIRQPPGKALEWLAHIWWDDEKYYNSALKSRLTISKDTSKNQVVLTITNMDPVDTATYYCARISNYGSNYWYFNVWGQGTLVTVSS
VL: AIQLTQSPSSLSASVGDRVTITCRASSSVSYMYWYQQKPGKAPKVLIYDTSNLASGVPSRFSGSGSGTDYTLTISSLQPEDFATYYCQQWNAYPLTFGQGTKLEIK
modifications: antibody sequences
B2: 42-B-02: humanized antibody binding human iRhom2; HCVD SEQ ID NO 33, LCVD SEQ ID NO 37 (antibody, V domains shown)
VH: B1 VH with M34R, S101Q, N111D
VL: B1 VL with S28R, V29I, Y33F, A92S
modifications: antibody sequences
B3: 42-B-04: humanized antibody binding human iRhom2; HCVD SEQ ID NO 41, LCVD SEQ ID NO 45 (antibody, V domains shown)
VH: B1 VH with M34R, S101Q, N111D
VL: B1 VL with S28R, V29I, Y33F
modifications: antibody sequences
B4: 16-B-03: humanized antibody binding human iRhom2; HCVD SEQ ID NO 1, LCVD SEQ ID NO 5 (antibody, V domains shown)
VH: QVTLRESGPALVKPTQTLTLTCTFSGFSLSTFALGVGWIRQPPGKALEWLAHIWWDDDKYYNPALKSRLTISKDTSKNQVVLTITNMDPVDTATYYCARITTYYYGMDYWGQGTLVTVSS
VL: EIVMTQSPDFQSVTPKEKVTITCRASQSIGNHLHWYQQKPDASPKLLIKYASQSISGVPSRFSGSGSGTDFTLTINSLEAEDAATYFCQQSYQWPLTFGQGTKLEIK
modifications: antibody sequences
B5: 16-B-07: humanized antibody binding human iRhom2; HCVD SEQ ID NO 17, LCVD SEQ ID NO 21 (antibody, V domains shown)
VH: B4 VH with D57E
VL: B4 VL
modifications: antibody sequences
B6: 16-B-05: humanized antibody binding human iRhom2; HCVD SEQ ID NO 9, LCVD SEQ ID NO 13 (antibody, V domains shown)
VH: B4 VH with D57E
VL: B4 VL with Q93N
modifications: antibody sequences

The molecules below were run on cynomolgus monkey iRhom1 (assay: FACS binding on MEF-DKO-Cyno-iR1-FL-WT-T7 cells). Conditions: antibody at 3 μg/ml.
Description: (§1) Next, iRhom1/2−/− DKO MEFs stably expressing a tagged form of rhesus monkey, cynomolgus monkey, dog or rabbit iRhom2 were generated in order to determine cross-reactivity of the antibodies of the invention with the respective orthologue of iRhom2. iRhom1/2−/− DKO MEFs stably expressing a tagged form of rhesus monkey, cynomolgus monkey, dog or rabbit iRhom1 were generated to confirm specificity for iRhom2 versus iRhom1 of these species.
(§2) In brief, on day 1, Phoenix-ECO cells (American Type Culture Collection, USA) were seeded on 6-well tissue culture plates (Greiner, Germany) in standard growth medium at 8×10^5 cells per well and kept overnight at 37° C., 5% CO2. On day 2, the medium was replaced by fresh medium supplemented with chloroquine (Sigma-Aldrich, USA) at a final concentration of 25 μM. Applying the calcium phosphate method, cells were transfected with 2 μg/ml of pMSCV (Clontech, USA) empty vector, pMSCV-rhesus-iR2-FL-WT-T7 encoding rhesus monkey iRhom2 full length wild type C-terminally tagged with 3 consecutive copies of the T7 epitope, pMSCV-cyno-iR2-FL-WT-T7 encoding cynomolgus monkey iRhom2 full length wild type C-terminally tagged with 3 consecutive copies of the T7 epitope, pMSCV-dog-iR2-FL-WT-T7 encoding dog iRhom2 full length wild type C-terminally tagged with 3 consecutive copies of the T7 epitope or pMSCV-rabbit-iR2-FL-WT-T7 encoding rabbit iRhom2 full length wild type C-terminally tagged with 3 consecutive copies of the T7 epitope, respectively, and were kept at 37° C., 5% CO2. After 7 hours, the transfections were stopped by replacing cell supernatants with standard growth medium lacking chloroquine, and cells were incubated at 37° C., 5% CO2 to allow virus production overnight. In parallel, immortalized iRhom1/2−/− DKO MEFs as target cells for retroviral infection were seeded on 6-well tissue culture plates (Greiner, Germany) in standard growth medium at 1×10^5 cells per well and were also kept overnight at 37° C., 5% CO2. On day 3, the supernatants of Phoenix-ECO cells releasing pMSCV, pMSCV-rhesus-iR2-FL-WT-T7, pMSCV-cyno-iR2-FL-WT-T7, pMSCV-dog-iR2-FL-WT-T7 or pMSCV-rabbit-iR2-FL-WT-T7 ecotrophic virus, respectively were collected, filtered with 0.45 μm CA filters, and supplemented with 4 μg/ml of polybrene (Sigma-Aldrich, USA). Upon removal of medium from the immortalized iRhom1/2−/− DKO MEFs, the virus containing supernatants were added to the target cells for 4 hours at 37° C., 5% CO2 for first infection. Simultaneously, Phoenix-ECO cells were re-incubated with fresh medium, which, after another 4 hours, was filtered and used for the second infection of the respective target cell populations, again in the presence of 4 μg/ml of polybrene. Likewise, a third, but overnight infection cycle was performed. On day 4, virus containing cell supernatants were replaced by fresh standard growth medium. From day 5 onwards, cells were grown in the presence of 2 mg/ml of geneticin (G418, Thermo Fisher Scientific, USA) for the selection of immortalized MEF-DKO-EV control cells stably infected with pMSCV empty vector, pMSCV-rhesus-iR2-FL-WT-T7 cells stably expressing rhesus monkey iRhom2 full length wild type C-terminally tagged with 3 consecutive copies of the T7 epitope, pMSCV-cyno-iR2-FL-WT-T7 cells stably expressing cynomolgus monkey iRhom2 full length wild type C-terminally tagged with 3 consecutive copies of the T7 epitope, pMSCV-dog-iR2-FL-WT-T7 cells stably expressing dog iRhom2 full length wild type C-terminally tagged with 3 consecutive copies of the T7 epitope or pMSCV-rabbit-iR2-FL-WT-T7 cells stably expressing rabbit iRhom2 full length wild type C-terminally tagged with 3 consecutive copies of the T7 epitope, respectively. Upon propagation, cells were stocked for future usage. In parallel, iRhom1/2−/− DKO MEFs stably expressing a tagged form of rhesus monkey, cynomolgus monkey, dog or rabbit iRhom1 were generated in an analogous manner. […]
B1 was tested, and the “binding to cynomolgus monkey iRhom1 on MEF-DKO-Cyno-iR1-FL-WT-T7 cells” value (“binding to cynomolgus monkey iRhom1” below) was “do not recognize cynomolgus monkey iRhom1”. With B2 the “binding to cynomolgus monkey iRhom1” value was “do not recognize cynomolgus monkey iRhom1”. In the case of B3, the “binding to cynomolgus monkey iRhom1” value is reported as “do not recognize cynomolgus monkey iRhom1”. With B4 the “binding to cynomolgus monkey iRhom1” value was “no significant binding”. For B5, the “binding to cynomolgus monkey iRhom1” value was “do not recognize cynomolgus monkey iRhom1”. For B6, the “binding to cynomolgus monkey iRhom1” value was “do not recognize cynomolgus monkey iRhom1”.

The molecules below were run on rabbit iRhom1 (assay: FACS binding on MEF-DKO-Rabbit-iR1-FL-WT-T7 cells). Conditions: antibody at 3 μg/ml.
Description: as §1, §2
B1 was tested, and the “binding to rabbit iRhom1 on MEF-DKO-Rabbit-iR1-FL-WT-T7 cells” value (“binding to rabbit iRhom1” for short) was “do not recognize rabbit iRhom1”. B2 was tested, and the “binding to rabbit iRhom1” value was “do not recognize rabbit iRhom1”. For B3, the “binding to rabbit iRhom1” value was “do not recognize rabbit iRhom1”. B4 was tested, and the “binding to rabbit iRhom1” value was “no significant binding”. For B5, the “binding to rabbit iRhom1” value was “do not recognize rabbit iRhom1”. In the case of B6, the “binding to rabbit iRhom1” value is reported as “do not recognize rabbit iRhom1”.
